Measurements taken from the supplement of paper PMC10201428.
± gives the standard deviation of the averaged measurements.

Tests used:
[1] = system: VchCAST RNA-guided transposition machinery (E. coli BL21(DE3) host, lacZ target); test: relative integration efficiency (T-RL orientation) vs wild-type transposon end (log2 (normalized fold change)); transposon end mutated: right end (5 bp flank + 75 bp right end); higher = more efficient transposition
Outline: (§1)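 Each barcoded pool, 1549 left-end or 1849 right-end transposon variants in a pUC57 mini-transposon donor, went into E. coli BL21(DE3) with a T7-driven effector plasmid (CRISPR array, tniQ-cas8-cas7-cas6, tnsA-tnsB-tnsC). Plates contained 0.1 mM IPTG and were held at 37°C for 18 h. Input plasmids and genomic integration junctions were PCR-amplified and read by Illumina sequencing, with two biological output replicates and four reference barcodes. Relative integration efficiency is the fold change of output over input barcode abundance, normalised to the reference barcodes and log-transformed.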

[2] = system: VchCAST RNA-guided transposition machinery (E. coli BL21(DE3) host, lacZ target); test: relative integration efficiency (T-LR orientation) vs wild-type transposon end (log2 (normalized fold change)); transposon end mutated: right end (5 bp flank + 75 bp right end); higher = more efficient transposition
Outline: as §1

Sequence | relative integration efficiency (log2) [1] | relative integration efficiency (log2) [2]
ACATTTGTTGATACAACCATAAAATGATAATTACACCCATAAATTGATAATTATCACACCCATAAATTGATAGGTAAGAGGATCATAGTCAGACCAACATTGCTACGACCCGTATTCGCACCGACAC | -0.281 ± 0.02 | 0.884 ± 0.061
ACATTTGTTGATACAACCATAAAATGATAATTACACCCATAAATTGATAATTATCACACCCATAAATTGATATCTCTGATCATAGTCAGACCAACATTGCTACGACCCGTATTCGCACCGACACTGA | -0.049 ± 0.013 | -0.209 ± 0.13
ACATTTGTTGATACAACCATAAAATGATAATTACACCCATAAATTGATAATTATCACACCCATAAATTGATATGTAAGAGGATCATAGTCAGACCAACATTGCTACGACCCGTATTCGCACCGACAC | -0.111 ± 0.0046 | 0.00487 ± 0.23
ACATTTGTTGATACAACCATAAAATGATAATTACACCCATAAATTGATAATTATCACACCCATAAATTGATATTCGGACTGATCATAGTCAGACCAACATTGCTACGACCCGTATTCGCACCGACAC | -0.0234 ± 0.0045 | 0.106 ± 0.13
ACATTTGTTGATACAACCATAAAATGATAATTACACCCATAAATTGATAATTATCACACCCATAAATTGATATTCTCTGATCATAGTCAGACCAACATTGCTACGACCCGTATTCGCACCGACACTG | -0.0876 ± 0.015 | -0.29 ± 0.067
ACATTTGTTGATACAACCATAAAATGATAATTACACCCATAAATTGATAATTATCACACCCATAAATTGATATTGAAGAGGATCATAGTCAGACCAACATTGCTACGACCCGTATTCGCACCGACAC | -0.00509 ± 0.15 | -0.000932 ± 0.33
ACATTTGTTGATACAACCATAAAATGATAATTACACCCATAAATTGATAATTATCACACCCATAAATTGATATTGAAGATGATCATAGTCAGACCAACATTGCTACGACCCGTATTCGCACCGACAC | 0.3393 ± 0.002 | 0.0825 ± 0.095
ACATTTGTTGATACAACCATAAAATGATAATTACACCCATAAATTGATAATTATCACACCCATAAATTGATATTGCAGAGGATCATAGTCAGACCAACATTGCTACGACCCGTATTCGCACCGACAC | 0.0202 ± 0.033 | -0.044 ± 0.11
ACATTTGTTGATACAACCATAAAATGATAATTACACCCATAAATTGATAATTATCACACCCATAAATTGATATTGCAGCTGATCATAGTCAGACCAACATTGCTACGACCCGTATTCGCACCGACAC | 0.131 ± 0.028 | 0.0166 ± 0.64
ACATTTGTTGATACAACCATAAAATGATAATTACACCCATAAATTGATAATTATCACACCCATAAATTGATATTGCCAACCATAAAATGATAATTACTCTGATCATAGTCAGACCAAGCACCGACAC | -1.11 ± 0.39 | -0.138 ± 0.05
ACATTTGTTGATACAACCATAAAATGATAATTACACCCATAAATTGATAATTATCACACCCATAAATTGATATTGCCAGTGATCATAGTCAGACCAACATTGCTACGACCCGTATTCGCACCGACAC | -0.39 ± 0.14 | -0.53 ± 0.12
ACATTTGTTGATACAACCATAAAATGATAATTACACCCATAAATTGATAATTATCACACCCATAAATTGATATTGCCCAACCATAAAATGATAATTATCTGATCATAGTCAGACCAAGCACCGACAC | -0.0286 ± 0.28 | -0.886 ± 0.6
ACATTTGTTGATACAACCATAAAATGATAATTACACCCATAAATTGATAATTATCACACCCATAAATTGATATTGCCGAGGATCATAGTCAGACCAACATTGCTACGACCCGTATTCGCACCGACAC | 0.325 ± 0.077 | 0.294 ± 0.46
ACATTTGTTGATACAACCATAAAATGATAATTACACCCATAAATTGATAATTATCACACCCATAAATTGATATTGCCGATGATCATAGTCAGACCAACATTGCTACGACCCGTATTCGCACCGACAC | 0.336 ± 0.0049 | 0.0792 ± 0.085
